Reference: the supplement of paper PMC10567573

B1: MFF (parent)
chain: DDLTVVDAASLRRQIIKLNRRLQL

Variants of: B1
Assay: protein stability index of a GFP-peptide fusion (GPS, HEK-293T) (PSI 1-6); higher = more stable
Conditions: c terminus: a fixed tail appended
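Further: lentivirally expressed fusions sorted by FACS into six bins by GFP to DsRed ratio, PSI derived from sequencing read proportions per bin multiplied by bin number.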

| Variant | protein stability index |
| --- | --- |
| R20L | 2.37 |
| R20M | 2.21 |
| R20N | 2.4 |
| R20P | 2.79 |
| R20Q | 1.85 |
| R20S | 1.96 |
| R20T | 2.76 |
| R20V | 1.9 |
| R20W | 1.37 |
| R20Y | 1.74 |
| R21A | 1.57 |
| R21C | 1.95 |
| R21D | 1.73 |
| R21E | 1.46 |
| R21F | 2.33 |
| R21G | 1.84 |
| R21H | 1.6 |
| R21K | 1.88 |
| R21L | 1.33 |
| R21M | 1.14 |
| R21N | 2.46 |

| Variant | protein stability index |
| --- | --- |
| R21P | 2.99 |
| R21Q | 1.84 |
| R21S | 2.98 |
| R21T | 1.91 |
| R21V | 1.79 |
| R21W | 1.91 |
| R21Y | 1.94 |
| L22A | 3.25 |
| L22C | 1.91 |
| L22D | 3.95 |
| L22E | 2.77 |
| L22F | 2.36 |
| L22G | 3.13 |
| L22H | 2.95 |
| L22I | 1.99 |
| L22K | 3.74 |
| L22M | 3.02 |
| L22N | 3.78 |
| L22P | 3.52 |
| L22Q | 3.21 |
| L22R | 3.01 |

| Variant | protein stability index |
| --- | --- |
| L22S | 3.6 |
| L22T | 2.62 |
| L22V | 2.61 |
| L22W | 2.4 |
| L22Y | 2.7 |
| Q23A | 1.57 |
| Q23C | 1.91 |
| Q23D | 2.33 |
| Q23E | 2.5 |
| Q23F | 2.32 |
| Q23G | 2.5 |
| Q23H | 1.5 |
| Q23I | 2.14 |
| Q23K | 2.38 |
| Q23L | 2.15 |
| Q23M | 2.43 |
| Q23N | 2.31 |
| Q23P | 2.62 |
| Q23R | 2.23 |
| Q23S | 2.63 |
| Q23T | 2.08 |

| Variant | protein stability index |
| --- | --- |
| Q23V | 1.34 |
| L24A | 2.29 |
| L24C | 2.06 |
| L24D | 2.77 |
| L24E | 2.23 |
| L24F | 1.8 |
| L24G | 2.56 |
| L24H | 2.21 |
| L24I | 2.32 |
| L24K | 2.99 |
| L24M | 1.71 |
| L24N | 2.35 |
| L24P | 2.89 |
| L24Q | 2.89 |
| L24R | 2.74 |
| L24S | 2.42 |
| L24T | 2.38 |
| L24V | 3.01 |
| L24W | 1.94 |
| L24Y | 1.72 |
